Data: patent publication US20150376619, “APTAMERS THAT BIND CD271” (VIVONICS, INC., published 2015)

Biological target: T1, CD271 (NGFR, p75NTR)/Fc chimera (Homo sapiens, UniProt P08138 P08138:29-250)
T1 chain: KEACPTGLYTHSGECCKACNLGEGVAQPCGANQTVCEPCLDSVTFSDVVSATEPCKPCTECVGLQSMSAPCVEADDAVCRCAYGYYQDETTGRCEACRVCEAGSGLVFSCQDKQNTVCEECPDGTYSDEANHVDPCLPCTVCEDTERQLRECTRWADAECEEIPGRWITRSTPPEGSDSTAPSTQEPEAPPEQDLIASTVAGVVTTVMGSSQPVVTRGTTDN
Experiment: size exclusion HPLC, 0.01 M PBS pH 7.4, room temperature, aptamer to protein 5:1; complex elutes at 21.2 min
Details: tags: human IgG1 Fc chimera, Sigma-Aldrich N8898 (lyophilized with PBS salts and BSA); chain copies: 2; label: biotin

B1: 1391-Motif (ssDNA)
DNA: TACGACTCACTATAGGGATCCAAGAAAGAAAAAGGAGAAAGGGGGGGGGGAATTCCCTTTAGTGAGGGTT
modifications: biotinylated for SPR
  binding result: binds
